Holding throughout (test): cell-based or functional assay
Assay [1] deals with HLA-DR3 (HLA-DRA*0101 / HLA-DRB1*0301) (human).
Assay [2] deals with HLA-DR4 (HLA-DRA*0101 / HLA-DRB1*0401) (human).
For assay [3], the target named is HLA-DR2 (chimeric HLA-DRA1*0101/DRB1*1501 with I-E domains) (human; murine) (UniProt Q8BHN5).
In assay [4] the target is HLA-A2.1 (HHD monochain) (human; murine).

Chain of UniProt Q8BHN5 (Q8BHN5 whole entry, stated change not applied): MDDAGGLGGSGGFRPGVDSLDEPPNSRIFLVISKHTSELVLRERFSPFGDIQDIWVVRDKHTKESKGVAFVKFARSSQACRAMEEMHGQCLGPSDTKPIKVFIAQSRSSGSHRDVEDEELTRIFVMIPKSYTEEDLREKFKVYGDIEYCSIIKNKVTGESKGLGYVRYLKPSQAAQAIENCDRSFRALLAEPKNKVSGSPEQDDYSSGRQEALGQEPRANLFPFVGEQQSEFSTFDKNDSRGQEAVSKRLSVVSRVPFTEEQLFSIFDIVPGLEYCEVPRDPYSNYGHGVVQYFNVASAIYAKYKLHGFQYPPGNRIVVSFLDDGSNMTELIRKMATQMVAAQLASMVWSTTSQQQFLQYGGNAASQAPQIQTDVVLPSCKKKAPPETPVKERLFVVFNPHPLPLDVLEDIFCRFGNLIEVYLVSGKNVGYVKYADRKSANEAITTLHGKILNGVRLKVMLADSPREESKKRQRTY

In assay [1], WNV NS1 1-19 peptide came in with an IFN-γ ELISpot (SFC/10^6) of 572 SFC/10^6.

The substance WNV NS1 10-27 peptide displayed an IFN-γ ELISpot (SFC/10^6) in assay [2] of 63 SFC/10^6.

In the case of WNV NS1 18-35 peptide, the IFN-γ ELISpot (SFC/10^6) in assay [1] was determined as 52 SFC/10^6.

For the substance WNV NS1 205-221 peptide, in assay [2], the IFN-γ ELISpot (SFC/10^6) was determined as 61 SFC/10^6.

Substance WNV NS1 270-287 peptide came in with an IFN-γ ELISpot (SFC/10^6) in assay [2] of 54 SFC/10^6.

For WNV NS1 305-322 peptide, the results for the IFN-γ ELISpot (SFC/10^6) in assay [1] and in assay [2] were 557 SFC/10^6 and 109 SFC/10^6, respectively.

Substance WNV NS1 327-343 peptide had an IFN-γ ELISpot (SFC/10^6) in assay [2] of 78 SFC/10^6.

Consider WNV NS2a 65-81 peptide, for which the IFN-γ ELISpot (SFC/10^6) in assay [2] amounted to 60 SFC/10^6.

For the substance WNV NS2a 168-183 peptide, the IFN-γ ELISpot (SFC/10^6) in assay [3] was determined as 556 SFC/10^6; in assay [1] it was 231 SFC/10^6.

WNV NS2b 1-18 peptide: the IFN-γ ELISpot (SFC/10^6) in assay [2] is 104 SFC/10^6.

As for WNV NS3 6-23 peptide, in assay [2], the IFN-γ ELISpot (SFC/10^6) was 43 SFC/10^6.

As for WNV NS3 37-54 peptide, the results for the IFN-γ ELISpot (SFC/10^6) in assay [3] and in assay [1] were 149 SFC/10^6 and 368 SFC/10^6, respectively.

WNV NS3 45-59 peptide had an IFN-γ ELISpot (SFC/10^6) in assay [1] of 63 SFC/10^6.

In assay [2], WNV NS3 228-243 peptide came in with an IFN-γ ELISpot (SFC/10^6) of 46 SFC/10^6.

For WNV NS3 474-489 peptide, the figures for the IFN-γ ELISpot (SFC/10^6) in assay [4] and in assay [1] were 92 SFC/10^6 and 83 SFC/10^6, respectively.

In assay [1], WNV NS3 480-496 peptide yielded an IFN-γ ELISpot (SFC/10^6) of 121 SFC/10^6.

Regarding WNV NS3 487-501 peptide, the IFN-γ ELISpot (SFC/10^6) in assay [4] worked out at 308 SFC/10^6; in assay [1] it was 431 SFC/10^6.

WNV NS3 492-509 peptide: in assay [1], the IFN-γ ELISpot (SFC/10^6) worked out at 216 SFC/10^6.

For the substance WNV NS3 500-517 peptide, the IFN-γ ELISpot (SFC/10^6) came to 51 SFC/10^6 in assay [3] and 145 SFC/10^6 in assay [1].

WNV NS3 560-574 peptide: the IFN-γ ELISpot (SFC/10^6) in assay [1] was found to be 225 SFC/10^6.

For WNV NS3 581-597 peptide, the IFN-γ ELISpot (SFC/10^6) in assay [2] worked out at 52 SFC/10^6.

WNV NS4a 1-17 peptide yielded an IFN-γ ELISpot (SFC/10^6) in assay [1] of 132 SFC/10^6.

Regarding WNV NS4a 15-31 peptide, the IFN-γ ELISpot (SFC/10^6) in assay [3] stood at 278 SFC/10^6; in assay [2], 187 SFC/10^6.

Take WNV NS4b 38-55 peptide: the IFN-γ ELISpot (SFC/10^6) in assay [3] turned out to be 57 SFC/10^6; in assay [1], 67 SFC/10^6.

On to WNV NS4b 63-80 peptide, for which the results for the IFN-γ ELISpot (SFC/10^6) in assay [1] and in assay [2] were 386 SFC/10^6 and 92 SFC/10^6, respectively.

Substance WNV NS4b 101-118 peptide displayed an IFN-γ ELISpot (SFC/10^6) in assay [2] of 134 SFC/10^6.

With WNV NS4b 187-204 peptide, in assay [2], the IFN-γ ELISpot (SFC/10^6) was 83 SFC/10^6.

As to WNV NS4b 201-218 peptide, the results for the IFN-γ ELISpot (SFC/10^6) in assay [1] and in assay [2] were 99 SFC/10^6 and 73 SFC/10^6, respectively.

For the substance WNV NS5 115-132 peptide, the IFN-γ ELISpot (SFC/10^6) in assay [1] turned out to be 79 SFC/10^6.

For the substance WNV NS5 605-622 peptide, the IFN-γ ELISpot (SFC/10^6) in assay [3] turned out to be 556 SFC/10^6; in assay [2], 240 SFC/10^6.

WNV NS5 704-721 peptide showed an IFN-γ ELISpot (SFC/10^6) in assay [2] of 65 SFC/10^6.

WNV NS5 771-788 peptide: the IFN-γ ELISpot (SFC/10^6) in assay [2] is 135 SFC/10^6.

WNV NS5 791-808 peptide yielded an IFN-γ ELISpot (SFC/10^6) in assay [2] of 78 SFC/10^6.

In the case of WNV prM 121-138 peptide, the IFN-γ ELISpot (SFC/10^6) in assay [3] is 130 SFC/10^6; in assay [2] it was 56 SFC/10^6.

On to WNV prM 136-153 peptide, for which the results for the IFN-γ ELISpot (SFC/10^6) in assay [3], in assay [1] and in assay [2] were 235 SFC/10^6, 78 SFC/10^6 and 327 SFC/10^6, respectively.

In the case of WNV prM 152-167 peptide, the IFN-γ ELISpot (SFC/10^6) in assay [4] was 318 SFC/10^6; in assay [3] it was 269 SFC/10^6; in assay [1], 90 SFC/10^6; in assay [2] it was 117 SFC/10^6.
